Laboratory results as given in PMC4599408.

Molecular target: GST-Kv4.3 NT (human)
Assay: pull-down

Chain of GST-Kv4.3 NT (human) (Q9UK17 whole entry): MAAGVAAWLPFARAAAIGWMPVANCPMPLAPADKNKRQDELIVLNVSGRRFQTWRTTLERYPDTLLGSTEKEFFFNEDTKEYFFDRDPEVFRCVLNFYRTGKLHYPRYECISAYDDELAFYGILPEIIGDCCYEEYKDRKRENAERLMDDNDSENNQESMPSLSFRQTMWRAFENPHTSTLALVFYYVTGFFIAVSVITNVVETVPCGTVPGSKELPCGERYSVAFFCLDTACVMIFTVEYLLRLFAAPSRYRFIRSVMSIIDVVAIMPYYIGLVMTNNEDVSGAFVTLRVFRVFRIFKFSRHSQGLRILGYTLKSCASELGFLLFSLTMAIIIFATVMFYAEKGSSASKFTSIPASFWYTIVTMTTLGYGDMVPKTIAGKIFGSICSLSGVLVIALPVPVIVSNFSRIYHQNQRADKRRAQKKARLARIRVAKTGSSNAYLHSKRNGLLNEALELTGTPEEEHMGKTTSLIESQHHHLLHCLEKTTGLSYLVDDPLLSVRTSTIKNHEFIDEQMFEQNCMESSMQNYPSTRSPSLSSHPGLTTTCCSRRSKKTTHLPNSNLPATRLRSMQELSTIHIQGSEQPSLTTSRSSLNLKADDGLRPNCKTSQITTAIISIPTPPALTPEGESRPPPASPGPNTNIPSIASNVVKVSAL

## DPP6-T p.H332R variant, in vitro translated and radiolabeled (natural protein)
  fold binding activity relative to DPP6-T: > 2 fold
